The subject of this data set is Escherichia coli TOP10. The data set can be described thus: shrunken log2 fold change of peptide-encoding DNA abundance (4.5 h post-induction vs induction); higher = less antimicrobial activity (less host growth inhibition). The conditions noted are these: time post-induction: 4.5 h; library: site-saturation at positions 5, 18, 19, 20.

Experimental findings from the supplement of paper PMC9112550, “Optimization of the antimicrobial peptide Bac7 by deep mutational scanning” (BMC Biology, 2022) are described below.
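Note: peptides expressed intracellularly from a pBAD plasmid library in pooled LB shake-flask culture, induced with 0.3% L-arabinose, DNA abundance read by NGS, three biological replicates, DESeq2 with apeglm shrinkage.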

As for RRIRCRPPRLPRPRPRPGGKPRP, the “shrunken log2 fold change” value was -0.0361.

For the sequence RRIRARPPRLPRPRPRPKPLPRP, the “shrunken log2 fold change” value was 0.455.

Regarding RRIRGRPPRLPRPRPRPLKFPRP, the “shrunken log2 fold change” value was 0.11.

For the sequence RRIRVRPPRLPRPRPRPSFKPRP, the “shrunken log2 fold change” value was -0.202.

On to RRIRQRPPRLPRPRPRPHNLPRP, for which the “shrunken log2 fold change” value was -0.183.

In the case of RRIRTRPPRLPRPRPRPFCEPRP, the “shrunken log2 fold change” value is -0.0463.

For RRIRRRPPRLPRPRPRPGACPRP, the “shrunken log2 fold change” value turned out to be 0.475.

With RRIRSRPPRLPRPRPRPMLYPRP, the “shrunken log2 fold change” value stood at 0.0575.

Regarding RRIRKRPPRLPRPRPRPCGFPRP, the “shrunken log2 fold change” value came out at 0.279.

For the sequence RRIRPRPPRLPRPRPRPGQLPRP, the “shrunken log2 fold change” value was -0.0604.

Regarding RRIRMRPPRLPRPRPRPCSRPRP, the “shrunken log2 fold change” value is 0.296.

With RRIRPRPPRLPRPRPRPLLHPRP, the “shrunken log2 fold change” value amounted to 0.0277.

As to RRIRNRPPRLPRPRPRPLLYPRP, the “shrunken log2 fold change” value is -0.588.

RRIRFRPPRLPRPRPRPFVSPRP: the “shrunken log2 fold change” value is -0.296.

Consider RRIRTRPPRLPRPRPRPQTKPRP, for which the “shrunken log2 fold change” value amounted to 0.0553.

As to RRIRARPPRLPRPRPRPIFWPRP, the “shrunken log2 fold change” value was 0.305.

Regarding RRIRPRPPRLPRPRPRPTVNPRP, the “shrunken log2 fold change” value is -0.157.

As for RRIRARPPRLPRPRPRPWSLPRP, the “shrunken log2 fold change” value was -0.181.

With RRIRYRPPRLPRPRPRPMVPPRP, the “shrunken log2 fold change” value is -0.909.

RRIRERPPRLPRPRPRPARQPRP: the “shrunken log2 fold change” value was determined as 0.0428.

Take RRIRLRPPRLPRPRPRPAISPRP: the “shrunken log2 fold change” value amounted to 0.118.

With RRIRQRPPRLPRPRPRPFFGPRP, the “shrunken log2 fold change” value stood at 6.44e-05.

RRIRLRPPRLPRPRPRPVRVPRP: the “shrunken log2 fold change” value came to 0.428.

Regarding RRIRDRPPRLPRPRPRPVNIPRP, the “shrunken log2 fold change” value stood at 0.0452.

With RRIRCRPPRLPRPRPRPNNEPRP, the “shrunken log2 fold change” value was -0.529.

For RRIRERPPRLPRPRPRPYVSPRP, the “shrunken log2 fold change” value is -0.672.

For the sequence RRIRLRPPRLPRPRPRPQYNPRP, the “shrunken log2 fold change” value is -0.791.

Turning to RRIRHRPPRLPRPRPRPEGAPRP, the “shrunken log2 fold change” value stood at 0.686.

In the case of RRIRMRPPRLPRPRPRPDGWPRP, the “shrunken log2 fold change” value worked out at 1.48.

As to RRIRMRPPRLPRPRPRPIMVPRP, the “shrunken log2 fold change” value was -0.0355.

With RRIRKRPPRLPRPRPRPKQIPRP, the “shrunken log2 fold change” value was 0.0984.

For RRIRVRPPRLPRPRPRPDRHPRP, the “shrunken log2 fold change” value is -0.0428.

On to RRIRFRPPRLPRPRPRPPCQPRP, for which the “shrunken log2 fold change” value is 3.46.

In the case of RRIRTRPPRLPRPRPRPLYMPRP, the “shrunken log2 fold change” value was -0.859.

Consider RRIRFRPPRLPRPRPRPQFDPRP, for which the “shrunken log2 fold change” value was -0.286.

Take RRIRIRPPRLPRPRPRPHDVPRP: the “shrunken log2 fold change” value was 0.000407.

Regarding RRIRSRPPRLPRPRPRPITPPRP, the “shrunken log2 fold change” value is 0.0356.

As for RRIRCRPPRLPRPRPRPFWPPRP, the “shrunken log2 fold change” value was 0.161.

Consider RRIRMRPPRLPRPRPRPQAVPRP, for which the “shrunken log2 fold change” value turned out to be 0.442.

On to RRIRTRPPRLPRPRPRPVAMPRP, for which the “shrunken log2 fold change” value was -0.0639.

On to RRIRMRPPRLPRPRPRPRTFPRP, for which the “shrunken log2 fold change” value is 0.541.

For the sequence RRIRYRPPRLPRPRPRPCEEPRP, the “shrunken log2 fold change” value is -0.156.

For RRIRKRPPRLPRPRPRPTMIPRP, the “shrunken log2 fold change” value was -0.0569.

In the case of RRIRCRPPRLPRPRPRPLMNPRP, the “shrunken log2 fold change” value is -0.645.

Regarding RRIRWRPPRLPRPRPRPDPSPRP, the “shrunken log2 fold change” value was -0.0349.

Turning to RRIRVRPPRLPRPRPRPITIPRP, the “shrunken log2 fold change” value was -0.0236.

RRIRARPPRLPRPRPRPQCFPRP: the “shrunken log2 fold change” value is 0.1.

RRIRHRPPRLPRPRPRPALHPRP: the “shrunken log2 fold change” value came to 0.111.

Consider RRIRTRPPRLPRPRPRPFDEPRP, for which the “shrunken log2 fold change” value is -0.206.

For RRIRSRPPRLPRPRPRPVRIPRP, the “shrunken log2 fold change” value was -0.239.

In the case of RRIRERPPRLPRPRPRPLQGPRP, the “shrunken log2 fold change” value is -0.179.

Turning to RRIRSRPPRLPRPRPRPCHPPRP, the “shrunken log2 fold change” value was determined as 0.0162.

Regarding RRIRYRPPRLPRPRPRPPLAPRP, the “shrunken log2 fold change” value is 0.13.

On to RRIRERPPRLPRPRPRPLHLPRP, for which the “shrunken log2 fold change” value was -0.0385.

RRIRPRPPRLPRPRPRPGAEPRP: the “shrunken log2 fold change” value amounted to 0.798.

As to RRIRTRPPRLPRPRPRPVYHPRP, the “shrunken log2 fold change” value was -1.34.

On to RRIRQRPPRLPRPRPRPVVYPRP, for which the “shrunken log2 fold change” value is 0.12.

Consider RRIRQRPPRLPRPRPRPCSEPRP, for which the “shrunken log2 fold change” value is -0.201.

As to RRIRVRPPRLPRPRPRPAEVPRP, the “shrunken log2 fold change” value amounted to 0.00588.

Regarding RRIRFRPPRLPRPRPRPQKYPRP, the “shrunken log2 fold change” value is -0.864.

RRIRERPPRLPRPRPRPEAMPRP: the “shrunken log2 fold change” value is 0.0431.

Regarding RRIRERPPRLPRPRPRPGSNPRP, the “shrunken log2 fold change” value was -0.0638.

For the sequence RRIRERPPRLPRPRPRPIHVPRP, the “shrunken log2 fold change” value was -0.274.

Consider RRIRYRPPRLPRPRPRPCIAPRP, for which the “shrunken log2 fold change” value was -0.148.

Take RRIRCRPPRLPRPRPRPMVLPRP: the “shrunken log2 fold change” value was -0.388.

RRIRGRPPRLPRPRPRPICYPRP: the “shrunken log2 fold change” value came to 0.543.

With RRIRHRPPRLPRPRPRPQKYPRP, the “shrunken log2 fold change” value was -0.383.

Consider RRIRPRPPRLPRPRPRPSRTPRP, for which the “shrunken log2 fold change” value was found to be 0.198.

As for RRIRPRPPRLPRPRPRPKPWPRP, the “shrunken log2 fold change” value came out at 0.227.

As for RRIRLRPPRLPRPRPRPKQTPRP, the “shrunken log2 fold change” value turned out to be 0.0369.

In the case of RRIRTRPPRLPRPRPRPFCSPRP, the “shrunken log2 fold change” value was found to be 0.207.

In the case of RRIRPRPPRLPRPRPRPATRPRP, the “shrunken log2 fold change” value stood at 0.442.

Turning to RRIRTRPPRLPRPRPRPLQHPRP, the “shrunken log2 fold change” value was -0.257.

Take RRIRSRPPRLPRPRPRPFTEPRP: the “shrunken log2 fold change” value was -0.0824.

In the case of RRIRCRPPRLPRPRPRPQYCPRP, the “shrunken log2 fold change” value is -0.135.

RRIRNRPPRLPRPRPRPPNAPRP: the “shrunken log2 fold change” value was 0.313.

For the sequence RRIRWRPPRLPRPRPRPNEPPRP, the “shrunken log2 fold change” value was -0.000964.

Turning to RRIRHRPPRLPRPRPRPLLVPRP, the “shrunken log2 fold change” value is -0.167.

Take RRIRVRPPRLPRPRPRPIWQPRP: the “shrunken log2 fold change” value is -0.114.

Take RRIRKRPPRLPRPRPRPQDEPRP: the “shrunken log2 fold change” value was -0.0149.

On to RRIRTRPPRLPRPRPRPWHMPRP, for which the “shrunken log2 fold change” value worked out at 0.0039.

As for RRIRERPPRLPRPRPRPPSPPRP, the “shrunken log2 fold change” value is -0.0326.

As for RRIRMRPPRLPRPRPRPLPSPRP, the “shrunken log2 fold change” value is 0.942.

RRIRDRPPRLPRPRPRPYWDPRP: the “shrunken log2 fold change” value is -0.766.

In the case of RRIRIRPPRLPRPRPRPYWWPRP, the “shrunken log2 fold change” value is -0.259.

Take RRIRMRPPRLPRPRPRPGDIPRP: the “shrunken log2 fold change” value came to 0.025.

Regarding RRIRMRPPRLPRPRPRPKWDPRP, the “shrunken log2 fold change” value was 0.68.

Turning to RRIRARPPRLPRPRPRPYHWPRP, the “shrunken log2 fold change” value was -0.0767.

Take RRIRLRPPRLPRPRPRPDDYPRP: the “shrunken log2 fold change” value was -0.247.

In the case of RRIRQRPPRLPRPRPRPSSIPRP, the “shrunken log2 fold change” value is -0.0146.

As to RRIRGRPPRLPRPRPRPQVKPRP, the “shrunken log2 fold change” value worked out at 0.564.

Consider RRIRARPPRLPRPRPRPKHNPRP, for which the “shrunken log2 fold change” value amounted to 0.114.

RRIRARPPRLPRPRPRPYAYPRP: the “shrunken log2 fold change” value is 0.104.

In the case of RRIRERPPRLPRPRPRPARPPRP, the “shrunken log2 fold change” value stood at 0.626.

In the case of RRIRYRPPRLPRPRPRPAGSPRP, the “shrunken log2 fold change” value worked out at 0.0105.

For RRIRERPPRLPRPRPRPAMWPRP, the “shrunken log2 fold change” value worked out at 0.293.

Consider RRIRGRPPRLPRPRPRPLASPRP, for which the “shrunken log2 fold change” value was 0.894.

Regarding RRIRFRPPRLPRPRPRPCEVPRP, the “shrunken log2 fold change” value is -0.0179.

With RRIRTRPPRLPRPRPRPTIEPRP, the “shrunken log2 fold change” value was -0.297.

For the sequence RRIRHRPPRLPRPRPRPQHCPRP, the “shrunken log2 fold change” value was -0.503.

Regarding RRIRSRPPRLPRPRPRPAEDPRP, the “shrunken log2 fold change” value is -0.0146.

As to RRIRARPPRLPRPRPRPRCLPRP, the “shrunken log2 fold change” value worked out at 0.157.

For the sequence RRIRDRPPRLPRPRPRPHRPPRP, the “shrunken log2 fold change” value amounted to 0.0369.

On to RRIRKRPPRLPRPRPRPFWMPRP, for which the “shrunken log2 fold change” value was 0.0752.

With RRIRNRPPRLPRPRPRPRNVPRP, the “shrunken log2 fold change” value was -0.3.

Consider RRIRPRPPRLPRPRPRPHQHPRP, for which the “shrunken log2 fold change” value came to 2.05.

Turning to RRIRKRPPRLPRPRPRPYQTPRP, the “shrunken log2 fold change” value is 0.0193.

For RRIRKRPPRLPRPRPRPRKPPRP, the “shrunken log2 fold change” value stood at 1.65.

For the sequence RRIRDRPPRLPRPRPRPYFEPRP, the “shrunken log2 fold change” value is -0.3.

For RRIRFRPPRLPRPRPRPAKAPRP, the “shrunken log2 fold change” value stood at 0.26.

With RRIRNRPPRLPRPRPRPMCKPRP, the “shrunken log2 fold change” value was -0.175.

Regarding RRIRFRPPRLPRPRPRPTWYPRP, the “shrunken log2 fold change” value is -0.0222.

On to RRIRTRPPRLPRPRPRPEKCPRP, for which the “shrunken log2 fold change” value is 0.0324.

In the case of RRIRYRPPRLPRPRPRPVYPPRP, the “shrunken log2 fold change” value is -0.208.

On to RRIRNRPPRLPRPRPRPAKSPRP, for which the “shrunken log2 fold change” value was 0.163.

For RRIRDRPPRLPRPRPRPVDGPRP, the “shrunken log2 fold change” value is 0.0169.

RRIRWRPPRLPRPRPRPNNYPRP: the “shrunken log2 fold change” value is -0.571.

As to RRIRHRPPRLPRPRPRPAHGPRP, the “shrunken log2 fold change” value amounted to 0.0855.

With RRIRLRPPRLPRPRPRPYMWPRP, the “shrunken log2 fold change” value is -1.05.

As for RRIRHRPPRLPRPRPRPIWLPRP, the “shrunken log2 fold change” value is -0.00879.

As to RRIRPRPPRLPRPRPRPTKGPRP, the “shrunken log2 fold change” value was determined as 0.0911.

As for RRIRIRPPRLPRPRPRPTNFPRP, the “shrunken log2 fold change” value was -0.535.

For RRIRLRPPRLPRPRPRPRKIPRP, the “shrunken log2 fold change” value was 0.103.

As for RRIRMRPPRLPRPRPRPNSCPRP, the “shrunken log2 fold change” value was -0.0381.

Turning to RRIRPRPPRLPRPRPRPYHMPRP, the “shrunken log2 fold change” value is -0.316.
